In the data set the test system is Bacillus subtilis DB104 (SP-AmyQ fusion secretion). Nature of the data set: AmyQ secretion efficiency, weighted average sort bin (1 = best secretion, 10 = worst) (bin number (weighted average, 1-10)); higher = lower secretion efficiency. A digest of the protocol: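 B. subtilis DB104 library expressing mature AmyQ fused to designed signal peptides (amyE-integrated) was encapsulated at about 0.3 cells per ~65 nL alginate bead with fluorescein-starch, grown about 13 h at room temperature and nile red stained. Occupied beads were sorted by large-particle flow cytometry into 10 equally populated bins by green/red fluorescence ratio, and each bin's amplicons were Illumina-sequenced. Secretion score is the read-frequency-weighted average bin number, normalised to beads per bin, excluding low-abundance sequences.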

MKVCQKSIVRFLVSLIIGTFVISVPFMANAQDD: the AmyQ secretion efficiency amounted to 2.65.
Then MKVCQKSIVRFLVSLIIGTFVISVPFMANAQSE, with 1.52; and MKVCQKSIVRFLVSLIIGTFVISVPFMANAQSK, with 2.23; and MKVCQKSIVRFLVSLIIGTFVISVPFMANARKR, with 3.31.
The same measure for MKVCQKSIVRFLVSLIIGTFVISVPFMANFQSD: 5.64; for MKVCQKSIVRFLVSLIIGTFVITSVPFMANAQSD: 3.
Then MKVCQKSIVRFRKRRIIGTFVISVPFMANAQSD, with 7.62; and MKVCQKSIVRSGVSLIIGTFVISVPFMANAQSD, with 2.46.
As for MKVCQKSIVRSQRSLIIGTFVISVPFMANAQSD, the AmyQ secretion efficiency came to 5.65.
The same measure for MKVCQKSIVRSTTRQRIGTFVISVPFMANAQSD: 7.4; for MKVCQKSIVRTNFLVSLIIGTFVISVPFMANAQSD: 2.34.
The same measure for MKVKKSALLLLLFAFEPSASGKKL: 7.2; for MKVKRKRLLLLLFAFEPSASGKKL: 7.56; for MKVKRRKRKLLLFAFEPSASGKKL: 6.97.
The same measure for MKVLLSALLLLFEPSASGKKL: 7.48; for MKVLLSALLLLLFAEASGKKL: 6.56.
Turning to MKVLLSALLLLLFAEDEEEEASGKKL, the AmyQ secretion efficiency came to 5.86.
Regarding MKVLLSALLLLLFAEEDSASGKKL, the AmyQ secretion efficiency came to 6.1.
The same measure for MKVLLSALLLLLFAFAASASGKKL: 6.06; for MKVLLSALLLLLFAFEPSASAKKL: 1.92; for MKVLLSALLLLLFAFEPSASCKKL: 4.65.
The same measure for MKVLLSALLLLLFAFEPSASDKKL: 6.18; for MKVLLSALLLLLFAFEPSASEKKL: 5.89.
The same measure for MKVLLSALLLLLFAFEPSASGAKR: 4.45.
In turn, MKVLLSALLLLLFAFEPSASGAPR registered an AmyQ secretion efficiency of 3.63.
Then MKVLLSALLLLLFAFEPSASGASL, with 2.94.
The same measure for MKVLLSALLLLLFAFEPSASKKKL: 6.2; for MKVLLSALLLLLFAFEPSASMKKL: 6.8; for MKVLLSALLLLLFAFEPSASPKKL: 2.66.
MKVLLSALLLLLFAFEPSASTKKL: the AmyQ secretion efficiency turned out to be 5.63.
Then MKVLLSALLLLLFAFEPSASVKKL, with 6.34; and MKVLLSALLLLLFAFEPSASWKKL, with 5.1.
Then MKVLLSALLLLLFAFEPSCSGKKL, with 5.53.
Then MKVLLSALLLLLFAFEPSDSGKKL, with 6.13.
In the case of MKVLLSALLLLLFAFEPSESGKKL, the AmyQ secretion efficiency was determined as 6.5.
Sequence MKVLLSALLLLLFAFEPSFASGKKL returned an AmyQ secretion efficiency of 5.58.
The same measure for MKVLLSALLLLLFAFEPSFSGKKL: 8.07; for MKVLLSALLLLLFAFEPSGSGKKL: 5.88; for MKVLLSALLLLLFAFEPSHSGKKL: 6.88.
Then MKVLLSALLLLLFAFEPSISGKKL, with 7.18; and MKVLLSALLLLLFAFEPSKSGKKL, with 6.03; and MKVLLSALLLLLFAFEPSLSGKKL, with 6.45.
Then MKVLLSALLLLLFAFEPSNSGKKL, with 6.02; and MKVLLSALLLLLFAFEPSPSGKKL, with 6.9.
For MKVLLSALLLLLFAFEPSRSGKKL, the AmyQ secretion efficiency is 6.31.
The same measure for MKVLLSALLLLLFAFEPSSSGKKL: 6.37; for MKVLLSALLLLLFAFEPSTVVTAATAVASGKKL: 2.96.
The same measure for MKVLLSALLLLLFAFEPSVSGKKL: 6.17; for MKVLLSALLLLLFAFEPSYSGKKL: 5.87.
The same measure for MKVLLSALLLLLFAFFEPSASGKKL: 6.51; for MKVLLSALLLLLFAFFTSFTLTLFEPSASGKKL: 7.36; for MKVLLSALLLLLFAFGPSASGKKL: 5.45.
MKVLLSALLLLLFAFSPSASGKKL came in with an AmyQ secretion efficiency of 4.69.
Sequence MKVLLSALLLLLFALVALSFEPSASGKKL registered an AmyQ secretion efficiency of 3.74.
The same measure for MKVLLSALLLLLFARKKKKRASGKKL: 6.15; for MKVLLSALLLLLFARRKSASGKKL: 7.09.
In turn, MKVPKTMLKKRKRKLLLSLTATSVSAHYV came in with an AmyQ secretion efficiency of 5.33.
MKVPKTMLKRTAAGLLLSLTATSVSAHYV had an AmyQ secretion efficiency of 4.94.
The same measure for MKVPKTMLLSTAAGLLLSLDEDSVSAHYV: 6.39; for MKVPKTMLLSTAAGLLLSLDPTSVSAHYV: 3.57.
MKVPKTMLLSTAAGLLLSLKKRSVSAHYV yielded an AmyQ secretion efficiency of 6.92.
Then MKVPKTMLLSTAAGLLLSLRRKKRKVSAHYV, with 6.33.
The same measure for MKVPKTMLLSTAAGLLLSLTATSASAHYV: 5.6.
The same measure for MKVPKTMLLSTAAGLLLSLTATSCSAHYV: 4.58; for MKVPKTMLLSTAAGLLLSLTATSDSAHYV: 6.94.
With MKVPKTMLLSTAAGLLLSLTATSESAHYV, the AmyQ secretion efficiency turned out to be 6.28.
MKVPKTMLLSTAAGLLLSLTATSFSAHYV gave an AmyQ secretion efficiency of 6.3.
Then MKVPKTMLLSTAAGLLLSLTATSISAHYV, with 6.77; and MKVPKTMLLSTAAGLLLSLTATSKSAHYV, with 6.37; and MKVPKTMLLSTAAGLLLSLTATSPPFPPVSAHYV, with 4.04.
The same measure for MKVPKTMLLSTAAGLLLSLTATSRSAHYV: 6.25; for MKVPKTMLLSTAAGLLLSLTATSTSAHYV: 4.19; for MKVPKTMLLSTAAGLLLSLTATSVSAEEE: 2.6.
The sequence MKVPKTMLLSTAAGLLLSLTATSVSAHRK yielded an AmyQ secretion efficiency of 4.68.
Then MKVPKTMLLSTAAGLLLSLTATSVSAHYK, with 5.14; and MKVPKTMLLSTAAGLLLSLTATSVSAKRK, with 5.92.
Consider MKVPKTMLLSTAAGLLLSLTATSVSCHYV, for which the AmyQ secretion efficiency worked out at 5.45.
The same measure for MKVPKTMLLSTAAGLLLSLTATSVSIHYV: 5.12; for MKVPKTMLLSTAAGLLLSLTATSVSSHYV: 7.63; for MKVPKTMLLSTAAGLLLSLTATSVSWHYV: 4.99.
The same measure for MKVPKTMLLSTAAGLLLSLTATSWSAHYV: 6.27; for MKVPKTMLLSTAAGLLLSLTVSAHYV: 5.02.
The same measure for MKVPKTMLLSTAAGLLTATSVSAHYV: 6.58; for MKVPKTMNFSFTLLSTAAGLLLSLTATSVSAHYV: 5.47; for MKVPKTMYQRRQAGLLLSLTATSVSAHYV: 6.61.
MKWCSICCAAVLLAGGAAQAEAV came in with an AmyQ secretion efficiency of 3.57.
Then MKWMCKKCCAAVLLAGGAAQAEAV, with 5.26; and MKWMCKKCCKKVLLAGGAAQAEAV, with 7.14.
Then MKWMCKRCCRRKRLAGGAAQAEAV, with 7.06.
The same measure for MKWMCMICCAAVLLAMIGAAQAEAV: 3.44.
For the sequence MKWMCSICCAAVLGAAQAEAV, the AmyQ secretion efficiency came to 4.75.
Then MKWMCSICCAAVLLAGAAAAQAEAV, with 4.13; and MKWMCSICCAAVLLAGEDEDEDAQAEAV, with 8.04.
In the case of MKWMCSICCAAVLLAGESAQAEAV, the AmyQ secretion efficiency was found to be 3.16.
Then MKWMCSICCAAVLLAGGAAASSSVVAQAEAV, with 3.55; and MKWMCSICCAAVLLAGGAAQAAAD, with 4.17.
Then MKWMCSICCAAVLLAGGAAQADDE, with 6.18.
Then MKWMCSICCAAVLLAGGAAQARRK, with 6.49.
The sequence MKWMCSICCAAVLLAGGAAQCEAV gave an AmyQ secretion efficiency of 3.23.
The same measure for MKWMCSICCAAVLLAGGAAQGEAV: 3.2; for MKWMCSICCAAVLLAGGAAQHEAV: 8.16.
The sequence MKWMCSICCAAVLLAGGAAQIEAV showed an AmyQ secretion efficiency of 2.05.
The same measure for MKWMCSICCAAVLLAGGAAQLEAV: 3.67; for MKWMCSICCAAVLLAGGAAQMEAV: 3.22; for MKWMCSICCAAVLLAGGAAQSEAV: 4.64.
The same measure for MKWMCSICCAAVLLAGGAAQTEAV: 3.03; for MKWMCSICCAAVLLAGGAAQVEAV: 2.92; for MKWMCSICCAAVLLAGGAAQYEAV: 7.08.
The sequence MKWMCSICCAAVLLAGGACQAEAV came in with an AmyQ secretion efficiency of 3.36.
Then MKWMCSICCAAVLLAGGADQAEAV, with 2.46.
Then MKWMCSICCAAVLLAGGAFQAEAV, with 4.41.
The same measure for MKWMCSICCAAVLLAGGAGQAEAV: 3.36.
Take MKWMCSICCAAVLLAGGAHQAEAV: the AmyQ secretion efficiency stood at 2.89.
Then MKWMCSICCAAVLLAGGAIQAEAV, with 2.58; and MKWMCSICCAAVLLAGGAKQAEAV, with 2.68.
